What was measured:
[1] = biological target: T1, Aβ11-29 (Homo sapiens, UniProt P05067); test: Hydrolysis activity against Aβ11-29
Procedure: (§2) Further, any change in activity caused by addition of human serum albumin (HSA, Wako Pure Chemical Industries, Ltd., final concentration 0.025%) also was measured.
(§3) As substrates, Aβ42 in the form of soluble powder (authentic sample, Peptide Institute Inc.) and fragment peptides thereof, namely, Aβ1-20, Aβ11-29, and soluble Aβ28-42, were used. […] In the case of MS analysis, the MS analysis was performed after applying 20 μl of the reaction solution to HPLC and collecting an aliquot of the peak.
As a substrate, Aβ11-29, which is a fragment peptide of Aβ42, was used. […] In the case of MS analysis, the MS analysis was performed after applying 20 μl of the reaction solution after the reaction for 6 days to HPLC and collecting an aliquot of the peak.
(§4) The present experiment examined activity against Aβ-Fs in Example 7.
The reaction solution V shown in FIG. 52 was incubated at 37° C. for a predetermined time, and autodigestion of ANA-YA4 (YRMI) and cleavage of Aβ11-29 were examined.
A reaction solution VI shown in FIG. 52 was incubated at 37° C. for a predetermined time, and cleavage of Aβ1-20 and Aβ11-29 by ANA-SA5 was examined.
(§5) As substrates, the same Aβ1-20 and Aβ11-29 as used in Example 7 were used.
The present example examined autodigestion and activity against Aβ-F of JAL 12-17 (YKGSGF) and JAL 12-16 (YKGSG). […] As a substrate, the same Aβ11-29 as used in Example 7 was used. The autodigestion was examined by causing the reaction in the same manner, except that the substrate was not added.

[2] = biological target: T1, Aβ11-29; test: Intermolecular interaction with Aβ11-29 (AFFINX QNμ); format: binding; settings: JAL-TA9 immobilized on platinum electrode
Excerpt: (§1) Intermolecular interactions of JAL-TA9 with Aβ42 and with Aβ-F were examined using an AFFINX QNμ (trade name, INITIUM, Inc.) in accordance with its protocol. The results obtained are shown in the graphs of FIG. 40. In FIG. 40, X indicates the result obtained when JAL-TA9 was not immobilized on a platinum electrode, and Y indicates the result obtained when JAL-TA9 was immobilized on the platinum electrode.

[3] = biological target: Aβ1-20 (Homo sapiens, UniProt P05067); test: Hydrolysis activity against Aβ1-20
Procedure: as §2, §3, §4, §5

[4] = test system: Aβ1-20 and Aβ11-29; test: Reaction rates / Km for Aβ1-20 and Aβ11-29; format: biochemical; settings: Aβ-F 0.05, 0.2 or 0.4 mmol/l, 0 or 1 hour
Procedure: HPLC was performed with the Aβ-F concentration in a reaction solution being set to 0.05, 0.2, or 0.4 mmol/l and a reaction time being set to 0 hours or 1 hour. Then, on the basis of the reduction rate of the peak of each Aβ-F, the Km value was determined.

[5] = biological target: T2, αA-crystallin (Homo sapiens, UniProt P02489); test: Degradation of αA-crystallin 71-88 fragment peptide; format: biochemical
T2 construct: consisting of 71-88 residues of αA-crystallin; made in house; host or cells: chemical synthesis (Setsunan University)
Excerpt: As a substrate, a fragment peptide with the following sequence consisting of 71-88 residues of αA-crystallin (synthesized in Setsunan University) was used.

[6] = biological target: soluble Aβ1-42 (Aβ42 authentic sample) (Homo sapiens, UniProt P05067); test: Hydrolysis activity against soluble Aβ1-42 (authentic sample)
Procedure: as §3
Aβ42 was used as a substrate. […] In the case of MS analysis, the MS analysis was performed after applying 20 μl of the reaction solution after the reaction for 7 days to HPLC and collecting an aliquot of the peak.

[7] = biological target: Aβ28-42 (Homo sapiens, UniProt P05067); test: Hydrolysis activity against Aβ28-42; format: biochemical
[8] = biological target: solid (insoluble) Aβ1-42 (Homo sapiens, UniProt P05067); test: Hydrolysis activity against solid (insoluble) Aβ1-42
Procedure: As a solid substrate, a crystal of Aβ42 was used. […] In the case of MS analysis, the MS analysis was performed after applying 100 μl of the reaction solution to HPLC and collecting an aliquot of the peak.

[9] = Autodigestion of the catalytic peptide (HPLC, MS); format: biochemical
Procedure: First, to a buffer solution (Tris-HCl, pH 6.5, final concentration: 100 mmol/l), JAL (final concentration: 0.2 mmol/l) and the fragment peptide of hMMP7 (final concentration 0.05 mmol/l) were added. […] Thereafter, the reaction solution was subjected to HPLC, and the peaks of JAL and the fragment peptide of hMMP7 were examined. HPLC was performed under the following conditions.
Next, the mechanism of autodigestion was examined using various mutants of JAL as hydrolytic peptides. To a reaction solution containing each of the mutants of JAL, a protease inhibitor (trade name: Roche cOmplete, Roche) was added to cause a reaction. One tablet of the protease inhibitor was dissolved in 1 ml of Milli-Q water, and then, 50 μl of the resultant mixture was added to the reaction solution. […] As a result, the autodigestion of all the peptides subjected to the measurement was inhibited (FIG. 16).
Autodigestion in Box B was examined.
JAL-TA9 was reacted in the same manner except that a substrate was not added to examine the autodigestion of JAL-TA9.
The influence of an inhibitor on autodigestion of JAL-TA9 was examined. […] As the protease inhibitor, the serine protease inhibitor AEBSF, which inhibited the autodigestion of JAL 12-22 C19M in the item (6) in Example 4, was used.

[10] = biological target: Tau MBD 1-30 (Homo sapiens, UniProt P10636); test: Hydrolysis activity against Tau MBD 1-30; format: biochemical
Tau MBD 1-30, sequence (P10636 609-638 limits assumed): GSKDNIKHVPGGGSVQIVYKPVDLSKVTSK
Excerpt: As a substrate, a Tau microtubule binding domain (MBD)-derived fragment (Tau MBD1-30) was used.

[11] = biological target: Aβ42 (Homo sapiens, UniProt P05067); test: Intermolecular interaction with Aβ42 (AFFINX QNμ); format: binding; settings: JAL-TA9 immobilized on platinum electrode
Excerpt: as §1

[12] = reaction solution composition 1 (PBS, HSA), 37° C., overnight

For PYKGSGFRMI [JAL-TA9], the “cleavage sites in Aβ-Fs (MS)” value ([1]; Example 7) was “cleaved at a plurality of sites”, the “degradation of Aβ-Fs (HPLC)” value [1, 12] was “degraded all the Aβ-Fs” and the intermolecular interaction [2] was “strong interaction”. For the same sequence, the “cleavage sites in Aβ-Fs (MS)” value ([3]; Example 7) was “cleaved at a plurality of sites”, the “degradation of Aβ-Fs (HPLC)” value [3, 12] was “degraded all the Aβ-Fs” and the “Km value, affinity of substrate to peptide” value [4] was “Aβ11-29 has higher affinity to JAL-TA9 than Aβ1-20”. The “fragment identification by MS” value [5] was “fragments of αA-crystallin resulting from the cleavage by JAL-TA9 were detected”, the “degradation of αA-crystallin” value ([5]; JAL-TA9 0.2 mmol/l, PBS, HSA, reaction for 1 day) was “could degrade αA-crystallin” and the “degradation of Aβ42 (HPLC)” value ([6]; authentic sample Aβ42, reaction solution composition 1) was “degraded both types of Aβ42”. For the same sequence, the “cleavage sites in Aβ42 (MS)” value ([6]; soluble authentic sample, 7 days) was “cleaved at a plurality of sites”, the “region of Aβ42 cleaved” value ([6]; summary of cleavage sites, FIG. 39) was “strong cleavage activity was exhibited against an intermediate region of Aβ42” and the “cleavage sites in Aβ-Fs (MS)” value ([7]; Example 7) was “cleaved at a plurality of sites”. For the same sequence, the “degradation of Aβ-Fs (HPLC)” value [7, 12] was “degraded all the Aβ-Fs”, the “cleavage of solid Aβ42 (MS)” value ([8]; solid Aβ42) was “activity against the solid Aβ42 also was observed” and the “degradation of Aβ42 (HPLC)” value ([8]; solid Aβ42, reaction solution composition 2) was “degraded both types of Aβ42”. For the same sequence, the “autodigestion in presence of protease inhibitor” value ([9]; AEBSF 6 mmol/l) was “autodigestion was inhibited”, the autodigestion ([9]; Example 7, substrate not added) was “autodigestion of JAL-TA9 was observed” and the autodigestion ([9]; Example 13, with αA-crystallin fragment) was “digested itself”. For the same sequence, the “autodigestion in presence of protease inhibitor” value ([9]; reaction solution IV, 6 hours) was “inhibited by the protease inhibitor”, the “fragment identification by MS” value ([10]; reaction for 1 day) was “fragments of Tau MBD 1-30 resulting from the cleavage by JAL-TA9” and the “fragment identification by MS” value ([10]; reaction for 5 days) was “fragments of Tau MBD 1-30 resulting from the cleavage by JAL-TA9”. For the same sequence, the “degradation of Tau MBD 1-30 (HPLC)” value ([10]; reaction solution composition 3, 37° C., overnight) was “degraded Tau MBD 1-30” and the intermolecular interaction [11] was “strong interaction”.
